In the supplement of paper PMC7877785:
± gives the uncertainty stated by the source.

Experiment: self-splicing fitness, log relative to wild type (ln ratio); higher = more splicing; Tetrahymena group I intron in knt gene, E. coli kanamycin selection, DiMSum; sequences stand for … in CUCUCU…GGAGGGAAAAGUUAUCAGGCAUGCACCUGGUAGCUAGUCUUUAAACCAAUAGAUUGCAUCGGUUUAAAAGGCAAGACCGUCAAAUUGCGGGAAAGGGGUCAACAGCCGUUCAGUACCAAGUCUCAGGGGAAACUUUGAGAUGGCCUUGCAAAGGGUAUGGUAAUAAGCUGACGGACAUGGUCCUAACCACGCAGCCAAGUCCUAAGUCAACAGAUCUUCUGUUGAUAUGGAUGCAGUUCACAGACUAAAUGUCGGUCGGGGAAGAUGUAUUCUUCUCAUAAGAUAUAGUCGGACCUCUCCUUAAUGGGAGCUAGCGGAUGAAGUGAUGCAACACUGGAGCCGCUGGGAACUAAUUUGUAUGCGAAAGUAUAUUGAUUAGUUUUGGAGUACUCGUGGUCG
Outline: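 The eight P1ex-region nucleotides of an intron in the knt kanamycin-resistance gene on pET-22b(+) were all randomised and the library put into E. coli BL21(DE3). Six replicate transformations were grown overnight at 37°C or 30°C on LB agar with or without 25 μg/mL kanamycin, together with 100 μg/mL carbenicillin, 50 μM IPTG and 0.2% rhamnose. Colonies were pooled and amplicon-sequenced on an Illumina HiSeq 2500. Fitness from DiMSum is the error-weighted combination of wild-type-normalised replicate fold changes, kanamycin over none.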

Sequence | self-splicing fitness (ln) (30 °C) | self-splicing fitness (ln) (37 °C)
CGCUAGCAAUAUUACGGUUA | -2.22 ± 0.23 | -1.82 ± 0.2
CAGUAGCAAUAUUACGUGUC | -3.74 ± 0.27 | -3.17 ± 0.33
CAAAAGCAAUAUUACGUUUA | -2.19 ± 0.13 | -1.3 ± 0.13
AGAAAGCAAUAUUACGUCCU | -0.0571 ± 0.065 | 0.432 ± 0.089
GGGAAGCAAUAUUACGAAAC | -0.695 ± 0.14 | -0.469 ± 0.17
AUCCAGCAAUAUUACGGGGG | -3.15 ± 0.16 | -1.96 ± 0.15
AGGUAGCAAUAUUACGUCCU | -3.01 ± 0.027 | -2.01 ± 0.041
GCCGAGCAAUAUUACGUUUA | -2.56 ± 0.17 | 0.181 ± 0.12
UUGUAGCAAUAUUACGAAGU | -2.54 ± 0.28 | -2.56 ± 0.48
GGACAGCAAUAUUACGUCCC | -3.31 ± 0.4 | –
AACCAGCAAUAUUACGCUAC | -2.63 ± 0.14 | -2.05 ± 0.13
GAUGAGCAAUAUUACGUAGA | -3.51 ± 0.24 | -1.88 ± 0.2
CCUAAGCAAUAUUACGGCAC | -3.72 ± 0.25 | -2.62 ± 0.28
UCAUAGCAAUAUUACGUCGA | -0.314 ± 0.093 | -0.745 ± 0.13
UAGGAGCAAUAUUACGGCGU | -3.14 ± 0.24 | -1.43 ± 0.28
CGGUAGCAAUAUUACGCCUG | -1.32 ± 0.13 | -0.225 ± 0.11
ACCAAGCAAUAUUACGGCUA | -0.574 ± 0.065 | -0.0302 ± 0.07
UGUAAGCAAUAUUACGAGUA | -1.48 ± 0.11 | -0.65 ± 0.12
CACAAGCAAUAUUACGGCGU | -1.66 ± 0.088 | -1.57 ± 0.099
CUGCAGCAAUAUUACGGGGG | -2.95 ± 0.18 | -2.6 ± 0.21
CCUUAGCAAUAUUACGCCGU | -2.66 ± 0.22 | -2.18 ± 0.24
CAAUAGCAAUAUUACGGCCG | 0.102 ± 0.12 | 0.341 ± 0.16
AAACAGCAAUAUUACGUCUC | -3.42 ± 0.15 | -2.31 ± 0.16
GCGAAGCAAUAUUACGUCGG | -2.61 ± 0.21 | -0.565 ± 0.25
AACUAGCAAUAUUACGAGUG | -0.165 ± 0.059 | -0.29 ± 0.074

Sequence | self-splicing fitness (ln) (30 °C) | self-splicing fitness (ln) (37 °C)
CGCCAGCAAUAUUACGGGAA | -2.84 ± 0.12 | -1.64 ± 0.1
AGCUAGCAAUAUUACGUGAA | -1.58 ± 0.13 | -1.05 ± 0.15
UUAAAGCAAUAUUACGAAUU | -1.97 ± 0.11 | -2.46 ± 0.21
AUGCAGCAAUAUUACGCAAA | -2.6 ± 0.13 | -0.0469 ± 0.14
CGUCAGCAAUAUUACGAUAC | -2.65 ± 0.14 | -1.38 ± 0.12
UGCAAGCAAUAUUACGGUAG | -0.738 ± 0.073 | -0.376 ± 0.081
AUUUAGCAAUAUUACGAAAC | -2.83 ± 0.22 | -2 ± 0.27
UUUGAGCAAUAUUACGUCGA | -2.46 ± 0.2 | -0.692 ± 0.24
UACGAGCAAUAUUACGACCG | -1.8 ± 0.45 | –
GGUUAGCAAUAUUACGCUGG | -3.44 ± 0.47 | -1.59 ± 0.31
CGGAAGCAAUAUUACGGGUG | -0.485 ± 0.09 | 0.544 ± 0.086
GGGUAGCAAUAUUACGCUGU | -3.54 ± 0.38 | -2.32 ± 0.29
UUGCAGCAAUAUUACGCCAA | -1.25 ± 0.19 | 0.228 ± 0.24
GCACAGCAAUAUUACGGACG | -1.3 ± 0.14 | 0.0137 ± 0.14
UGCGAGCAAUAUUACGGCUG | -1.04 ± 0.1 | -0.349 ± 0.15
GUUGAGCAAUAUUACGAGGU | -3.2 ± 0.28 | –
CGCUAGCAAUAUUACGUAAG | -0.553 ± 0.073 | -0.0723 ± 0.1
ACAGAGCAAUAUUACGUAUG | -2.91 ± 0.17 | -3.39 ± 0.37
UCAAAGCAAUAUUACGUCAA | -2.84 ± 0.23 | -2.71 ± 0.29
AUACAGCAAUAUUACGGUCC | -1.18 ± 0.097 | 0.135 ± 0.11
AGGAAGCAAUAUUACGUAUU | -3.54 ± 0.24 | -0.582 ± 0.15
ACCCAGCAAUAUUACGGGAG | -1.23 ± 0.059 | -1.05 ± 0.082
CAUCAGCAAUAUUACGUUUC | -2.76 ± 0.17 | -1.82 ± 0.16
UCCGAGCAAUAUUACGCUGC | -2.96 ± 0.24 | -1.84 ± 0.31
AUAAAGCAAUAUUACGUUUG | -2.84 ± 0.11 | -1.79 ± 0.12

Sequence | self-splicing fitness (ln) (30 °C) | self-splicing fitness (ln) (37 °C)
CCACAGCAAUAUUACGGCUU | -3.62 ± 0.14 | -2.71 ± 0.18
AGCUAGCAAUAUUACGCUAU | -2.89 ± 0.21 | -1.42 ± 0.18
AUGUAGCAAUAUUACGCACC | -1.63 ± 0.15 | -0.228 ± 0.18
UCGGAGCAAUAUUACGUACU | – | -2.6 ± 0.34
UGUUAGCAAUAUUACGCAAC | -2.82 ± 0.44 | –
UGGCAGCAAUAUUACGUCCC | 0.385 ± 0.14 | -0.074 ± 0.19
GGAAAGCAAUAUUACGAGUA | -2.38 ± 0.22 | -0.9 ± 0.19
CUAAAGCAAUAUUACGACGC | – | -1.39 ± 0.45
AGUAAGCAAUAUUACGAGCG | -0.847 ± 0.072 | -0.0455 ± 0.11
CUGCAGCAAUAUUACGGUUC | -3.41 ± 0.1 | -2.48 ± 0.13
CAACAGCAAUAUUACGGCGC | -1.94 ± 0.076 | -1.24 ± 0.096
UGUGAGCAAUAUUACGGUAU | -3.87 ± 0.34 | –
UGUCAGCAAUAUUACGAAGA | -0.706 ± 0.11 | -0.132 ± 0.11
CGGCAGCAAUAUUACGAGUC | -1.86 ± 0.34 | -1.76 ± 0.25
AGGGAGCAAUAUUACGAGGU | -2.64 ± 0.17 | -3.55 ± 0.31
ACACAGCAAUAUUACGCUAA | -2.03 ± 0.1 | -1.19 ± 0.1
GAAAAGCAAUAUUACGCCUG | -0.929 ± 0.081 | -0.273 ± 0.11
AAACAGCAAUAUUACGGGCU | -3.15 ± 0.12 | -1.95 ± 0.13
CUCGAGCAAUAUUACGUAAC | -1.53 ± 0.28 | –
AGCAAGCAAUAUUACGUCCU | 0.639 ± 0.099 | 0.541 ± 0.11
CAGGAGCAAUAUUACGCAGC | -2.14 ± 0.18 | -2.55 ± 0.33
GGGUAGCAAUAUUACGCGAC | -2.34 ± 0.2 | -1.62 ± 0.23
CAGAAGCAAUAUUACGUAGU | -4.18 ± 0.24 | -1.97 ± 0.17
CCACAGCAAUAUUACGCUUC | -3.25 ± 0.47 | –
AAGGAGCAAUAUUACGGCGG | -4.57 ± 0.3 | -2.12 ± 0.32

Sequence | self-splicing fitness (ln) (30 °C) | self-splicing fitness (ln) (37 °C)
CGCAAGCAAUAUUACGAAUG | -1.4 ± 0.1 | -0.303 ± 0.1
GACCAGCAAUAUUACGAACA | -0.472 ± 0.091 | 0.313 ± 0.081
UCCAAGCAAUAUUACGGCAG | -4.85 ± 0.46 | -2.84 ± 0.28
UAGAAGCAAUAUUACGAAGU | -3.7 ± 0.4 | -1.17 ± 0.22
CCAUAGCAAUAUUACGCCCU | -2.8 ± 0.29 | -2.84 ± 0.39
AUAGAGCAAUAUUACGGCCU | -0.822 ± 0.2 | -0.365 ± 0.21
ACAAAGCAAUAUUACGGAGG | -2.23 ± 0.078 | -2.17 ± 0.11
CCACAGCAAUAUUACGAUUC | -3.17 ± 0.11 | -2.23 ± 0.14
CGAAAGCAAUAUUACGAGCC | -2.18 ± 0.32 | -1.19 ± 0.3
GAGGAGCAAUAUUACGAAGG | -4.59 ± 0.46 | -2.39 ± 0.27
GUGCAGCAAUAUUACGCAAA | -0.928 ± 0.1 | -0.119 ± 0.13
UCCGAGCAAUAUUACGCUCU | -3.31 ± 0.4 | –
GCGAAGCAAUAUUACGAGUA | -2.13 ± 0.3 | -1.28 ± 0.19
GCCGAGCAAUAUUACGCAGU | -2.75 ± 0.33 | -2.25 ± 0.23
CAGCAGCAAUAUUACGCAAU | -3.18 ± 0.24 | -1.29 ± 0.15
AACCAGCAAUAUUACGUCAC | -3.92 ± 0.13 | -2.66 ± 0.13
GUUCAGCAAUAUUACGCCCC | -0.521 ± 0.16 | -0.42 ± 0.19
GGUAAGCAAUAUUACGCUGA | -2.82 ± 0.28 | -0.411 ± 0.22
CGGCAGCAAUAUUACGUUAC | -3.4 ± 0.2 | -3.3 ± 0.33
UCUGAGCAAUAUUACGAAGU | -2.62 ± 0.16 | -1.56 ± 0.19
CUUUAGCAAUAUUACGGUAG | -1.81 ± 0.085 | -0.685 ± 0.11
UUGAAGCAAUAUUACGAACC | -1.68 ± 0.24 | -1.77 ± 0.44
CCGUAGCAAUAUUACGCCAC | -1.95 ± 0.22 | -1.78 ± 0.33
